Reference: patent US20130059793A1 (University of Texas, published 2013)
Ends that are not written are not given here.

Tests used:
VEGF = target: T1, VEGF (UniProt P15692-4 27-191, limits assumed); experiment: phage binding assay on proteins coated onto microtiter wells
T1 construct: Negative control protein; also called negative control protein VEGF

[1] = target: T2, bovine serum albumin (BSA) (bovine, UniProt P02769 25-607); experiment: phage binding assay on immobilized proteins
T2 construct: Negative control protein
T2 sequence (P02769 25-607 limits assumed): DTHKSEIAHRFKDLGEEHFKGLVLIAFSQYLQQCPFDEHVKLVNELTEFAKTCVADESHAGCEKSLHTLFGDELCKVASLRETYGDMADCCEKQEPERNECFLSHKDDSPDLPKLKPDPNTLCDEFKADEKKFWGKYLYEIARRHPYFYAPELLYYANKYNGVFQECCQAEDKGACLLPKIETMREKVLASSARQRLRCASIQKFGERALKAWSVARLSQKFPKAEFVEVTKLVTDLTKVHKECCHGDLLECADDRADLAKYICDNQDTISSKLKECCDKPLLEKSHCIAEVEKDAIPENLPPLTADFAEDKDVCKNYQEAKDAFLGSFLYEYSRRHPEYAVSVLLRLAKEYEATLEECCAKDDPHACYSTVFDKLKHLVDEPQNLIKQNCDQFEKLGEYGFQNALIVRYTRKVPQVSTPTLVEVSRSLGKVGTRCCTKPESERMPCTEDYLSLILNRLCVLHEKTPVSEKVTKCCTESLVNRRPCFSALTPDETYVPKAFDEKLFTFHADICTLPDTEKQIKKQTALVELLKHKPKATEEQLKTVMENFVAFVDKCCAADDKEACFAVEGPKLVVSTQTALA

[2] = target: T3, epidermal growth factor (EGF) (UniProt P01133 971-1023); experiment: phage binding assay on proteins coated onto microtiter wells
T3 construct: Bought
T3 sequence (P01133 971-1023 limits assumed): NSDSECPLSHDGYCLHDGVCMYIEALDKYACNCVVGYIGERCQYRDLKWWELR

[3] = target: T4, transforming growth factor alpha (TGF-α) (UniProt P01135 40-89); experiment: as above
T4 construct: Bought; also called Tumor Growth Factor alpha

T1 sequence (P15692 other isoform, or with tags, fused parts or gaps limits assumed): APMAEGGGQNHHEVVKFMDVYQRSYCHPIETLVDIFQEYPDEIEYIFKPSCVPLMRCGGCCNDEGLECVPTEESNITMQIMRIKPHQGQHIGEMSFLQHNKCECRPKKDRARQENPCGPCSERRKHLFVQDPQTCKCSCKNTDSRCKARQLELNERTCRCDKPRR

Row | Binder | binding result (VEGF) | binding result [1] | binding result [2] | binding result [3]
1 | CVRAC (not fully specified (bridges); also: cyclic, ring type not given here, displayed on phage, the phage coat protein that carries the insert is not described; also called CVRAC-phage; phage displaying the cyclic peptide CVRAC) [CVRAC-displaying phage] | no binding | no binding |  | 
2 | CVAAC (not fully specified (bridges); also: cyclic, ring type not given here, displayed on phage, coat protein fusion not described; also called CVAAC-phage; alanine scanning control) [CVAAC-displaying phage] |  |  | no binding | no binding
